Data as given in US10450368 (DUKE UNIVERSITY, dated 2019).

T1: Centromere B (UniProt P07199 1-599)
T1 construct: also called Cent B
T1 sequence: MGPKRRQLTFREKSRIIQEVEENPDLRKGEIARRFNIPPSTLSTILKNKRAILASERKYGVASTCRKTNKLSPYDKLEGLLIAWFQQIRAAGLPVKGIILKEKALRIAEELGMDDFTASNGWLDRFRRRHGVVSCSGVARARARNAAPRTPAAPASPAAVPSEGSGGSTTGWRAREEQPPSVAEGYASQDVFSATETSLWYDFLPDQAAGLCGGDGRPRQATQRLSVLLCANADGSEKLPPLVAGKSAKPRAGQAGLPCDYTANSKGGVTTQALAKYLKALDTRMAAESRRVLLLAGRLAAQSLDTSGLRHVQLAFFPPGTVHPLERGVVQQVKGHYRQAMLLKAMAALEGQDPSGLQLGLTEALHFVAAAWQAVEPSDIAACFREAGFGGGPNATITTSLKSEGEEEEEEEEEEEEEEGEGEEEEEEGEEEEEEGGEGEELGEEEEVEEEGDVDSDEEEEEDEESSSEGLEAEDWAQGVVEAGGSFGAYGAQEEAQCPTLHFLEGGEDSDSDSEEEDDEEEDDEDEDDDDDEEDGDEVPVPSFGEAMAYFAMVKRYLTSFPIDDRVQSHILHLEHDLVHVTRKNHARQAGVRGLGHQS

T2: Scl-70 (UniProt P11387 1-765)
T2 sequence: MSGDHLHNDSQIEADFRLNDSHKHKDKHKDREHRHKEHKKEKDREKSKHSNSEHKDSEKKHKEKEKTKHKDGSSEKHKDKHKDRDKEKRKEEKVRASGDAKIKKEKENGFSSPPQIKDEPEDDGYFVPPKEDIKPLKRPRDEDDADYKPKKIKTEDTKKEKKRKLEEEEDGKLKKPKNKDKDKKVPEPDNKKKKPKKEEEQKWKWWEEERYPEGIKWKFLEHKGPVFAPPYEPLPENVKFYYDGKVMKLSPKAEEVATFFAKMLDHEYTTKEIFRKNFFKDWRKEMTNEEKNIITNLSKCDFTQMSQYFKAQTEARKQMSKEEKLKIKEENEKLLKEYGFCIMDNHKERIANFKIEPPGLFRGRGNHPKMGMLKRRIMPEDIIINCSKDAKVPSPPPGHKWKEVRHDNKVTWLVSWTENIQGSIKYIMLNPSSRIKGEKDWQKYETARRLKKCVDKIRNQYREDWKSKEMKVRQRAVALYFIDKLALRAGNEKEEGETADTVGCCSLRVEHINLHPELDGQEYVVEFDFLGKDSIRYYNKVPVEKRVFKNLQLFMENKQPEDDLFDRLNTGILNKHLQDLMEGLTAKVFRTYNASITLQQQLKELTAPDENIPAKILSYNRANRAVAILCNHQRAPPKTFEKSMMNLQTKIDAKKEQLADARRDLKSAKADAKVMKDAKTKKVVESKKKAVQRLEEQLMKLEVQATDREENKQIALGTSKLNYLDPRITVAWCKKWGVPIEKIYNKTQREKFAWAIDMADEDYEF

T3: Jo-1 (UniProt P12081 1-509)
T3 sequence: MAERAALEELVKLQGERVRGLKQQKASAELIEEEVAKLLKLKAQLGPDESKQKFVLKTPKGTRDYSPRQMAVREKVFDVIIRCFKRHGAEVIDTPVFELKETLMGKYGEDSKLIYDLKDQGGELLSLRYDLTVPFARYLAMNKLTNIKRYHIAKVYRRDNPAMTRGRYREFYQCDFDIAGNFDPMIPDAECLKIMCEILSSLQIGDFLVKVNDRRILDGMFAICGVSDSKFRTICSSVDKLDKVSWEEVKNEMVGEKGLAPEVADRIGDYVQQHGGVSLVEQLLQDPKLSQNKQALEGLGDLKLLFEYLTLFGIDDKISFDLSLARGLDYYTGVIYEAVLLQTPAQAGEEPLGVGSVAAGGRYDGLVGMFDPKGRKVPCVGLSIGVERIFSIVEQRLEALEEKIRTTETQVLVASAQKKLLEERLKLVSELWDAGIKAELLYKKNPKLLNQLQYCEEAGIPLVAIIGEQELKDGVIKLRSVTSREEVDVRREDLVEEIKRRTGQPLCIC

T4: SSB (UniProt P05455 1-408)
T4 sequence: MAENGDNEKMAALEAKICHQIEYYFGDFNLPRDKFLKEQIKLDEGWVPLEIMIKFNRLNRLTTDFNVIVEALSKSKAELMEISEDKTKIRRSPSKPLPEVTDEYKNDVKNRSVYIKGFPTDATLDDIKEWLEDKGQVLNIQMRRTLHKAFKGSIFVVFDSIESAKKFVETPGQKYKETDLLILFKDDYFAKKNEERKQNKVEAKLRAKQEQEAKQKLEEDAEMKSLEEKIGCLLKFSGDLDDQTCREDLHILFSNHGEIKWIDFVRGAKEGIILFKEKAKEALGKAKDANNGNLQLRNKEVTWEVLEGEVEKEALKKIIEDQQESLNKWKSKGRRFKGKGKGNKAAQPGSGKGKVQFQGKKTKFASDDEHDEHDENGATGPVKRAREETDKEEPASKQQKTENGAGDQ


How the values were obtained:
Centromere B = biological target: T1, Centromere B; test: AtheNA, Ab 12.5 ug/ml
SSA [1] = biological target: T5, SSA; test: AtheNA, Ab 6.25 ug/ml
T5 construct: also called SSA (Ro)

Sm (Smith antigen) [2] = biological target: T6, Sm (Smith antigen); test: AtheNA, Ab 6.25 ug/ml
T6 construct: Protein complex

Scl-70 [3] = biological target: T2, Scl-70; test: AtheNA, Ab 6.25 ug/ml
Jo-1 = biological target: T3, Jo-1; test: AtheNA, Ab 6.25 ug/ml
SSA [4] = biological target: T5, SSA; test: AtheNA, Ab 50 ug/ml
Source text: (§1) AtheNA Multi-Lyte ANA Plus Test System is one such assay. This is luminex-based assay, which is also used to screen patient sera.

SSB = biological target: T4, SSB; test: AtheNA, Ab 50 ug/ml
Source text: as §1

Sm (Smith antigen) [5] = biological target: T6, Sm (Smith antigen); test: AtheNA, Ab 50 ug/ml
Source text: as §1

RNP (ribonucleoprotein) = biological target: T7, RNP (ribonucleoprotein); test: AtheNA, Ab 50 ug/ml
T7 construct: Protein-RNA complex
Source text: as §1

Scl-70 [6] = biological target: T2, Scl-70; test: AtheNA, Ab 50 ug/ml
Source text: as §1

Histones = biological target: T8, Histones; test: AtheNA, Ab 50 ug/ml
T8 construct: Mixture of proteins
Source text: as §1

[7] = biological target: T9, HIV-1 CH505 transmitted/founder gp120 Env (HIV-1); test: direct-binding ELISA (OD450), panel 'CH505.TF gp120'
T9 construct: domain: gp120; also called CH505.TF gp120; CH505 TF gp120 Env

CH505.TF mutant gp120 M6 = biological target: T10, CH505.TF mutant gp120 M6 (HIV-1); test: direct-binding ELISA (OD450), panel 'CH505.TF gp120 M6'
T10 construct: domain: gp120

Binder | AtheNA signal (Centromere B) | AtheNA signal (SSA [1]) | AtheNA signal (Sm (Smith antigen) [2]) | AtheNA signal (Scl-70 [3]) | AtheNA signal (Jo-1) | AtheNA signal (SSA [4]) | AtheNA signal (SSB) | AtheNA signal (Sm (Smith antigen) [5]) | AtheNA signal (RNP (ribonucleoprotein)) | AtheNA signal (Scl-70 [6]) | AtheNA signal (Histones) | EC50 (read off the curve) [7] [µg/mL] | EC50 (read off the curve) (CH505.TF mutant gp120 M6) [µg/mL]
CH557 (antibody, V domains shown, also called CH235.12; CH557_4A/293i) VH: QVRLAQYGGGVKRLGATMTLSCVASGYTFNDYYIHWVRQAPGQGFELLGYIDPANGRPDYAGALRERLSFYRDKSMETLYMDLRSLRYDDTAMYYCVRNVGTAGSLLHYDHWGSGSPVIVSS VL: EIVLTQSPATLSASPGERVTLTCRASRSVRNNVAWYQHKGGQSPRLLIYDASTRAAGVPARFSGSASGTEFTLAISNLESEDFTVYFCLQYNNWWTFGQGTRVDIK | 16 relative luminescence units | 4 relative luminescence units | 4 relative luminescence units | 3 relative luminescence units | 5 relative luminescence units | – | – | – | – | – | – | – | –
CH493 (antibody, V domains shown, also called CH235.9; DH493) VH: QVRLLQYGGGVKRPGASMTISCVASGYNFNDYYIHWVRQAPGQGLELMGWIDPSGGRTDYAGAFGDRVSMYRDKSMNTLYMDLRSLRSGDTAMYYCVRNVGTAGSLLHYDHWGLGVMVTVSS VL: EIVLTQSPATLSVSPGERVTLSCRASQSVRNNLAWYRQKRGQAPRLLIYGASTRATGIPARFSGSGSGTEFTLTISSMQSEDFAVYYCQQYNNWWTFGQGTKVEIK | – | – | – | – | – | 155 | 70 | 37 | 69 | 36 | 166 | ~0.7 | ~0.5
